Reference: paper PMC7218866, “Impact of Self-Assembled Monolayer Design and Electrochemical Factors on Impedance-Based Biosensing”

Molecular target: lysozyme (UniProt P00698 19-147)
Test: electrochemical impedance spectroscopy (EIS); dense aptamer SAM (no MCH dilution), ferricyanide reporter; RCT change significant from 8 nM (LOD), up to 12%; 1x HBS, pH 7.4, redox reporter (ferricyanide or methylene blue) in solution; aptamer on gold electrode; temperature not stated
Details: protein: commercial

Chain of lysozyme (P00698 19-147): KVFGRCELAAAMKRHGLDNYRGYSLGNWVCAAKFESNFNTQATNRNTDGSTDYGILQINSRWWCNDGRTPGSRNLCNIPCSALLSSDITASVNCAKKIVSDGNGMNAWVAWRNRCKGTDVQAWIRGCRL

B1: lysozyme aptamer (thiolated) (ssDNA)
DNA: AGCAGCACAGAGGTCAGATGGCAGGTAAGCAGGCGGCTCACAAAACCATTCGCATGCGGC
modifications: 5' thiol-C6 (SH-C6), immobilized on gold in SAM
- binding result: binds
